Biological target: the molecule itself
Assay: Thioflavin T fluorescence assay of amyloid-like fibril formation; 10 μM recombinant protein in PBS without sarkosyl, 30 μM ThT, 37 °C for up to 98 hours; in parallel with 40 μM EGCG, an inhibitor of fibril formation

B1: unfused recombinant Plasmodium falciparum merozoite surface protein 2 (3D7 allele) (domain or fragment)
chain: KNESKYSNTFINNAYNMSIRRSMAESKPSTGAGGSAGGSAGGSAGGSAGGSAGGSAGSGDGNGADAEGSSSTPATTTTTKTTTTTTTTNDAEASTSTSSENPNHKNAETNPKGKGEVQEPNQANKETQNNSNVQQDSQTKSNVPPTQDADTKSPTAQPEQAENSAPTAEQTESPELQSAPENKGTGQHGHMHGSRNNHPQNTSDSQKECTDGNKENCGAATSLLNNSS
notes: Predicted molecular weight 24,721 daltons; also called rPfMSP2; rPfMSP2 (3D7); not shown: His6, N-terminal, kept
binding result: binds

Source: article PMC6588637, “Immunization with merozoite surface protein 2 fused to a Plasmodium-specific carrier protein elicits strain-specific and strain-transcending, opsonizing antibody” (Scientific Reports, 2019)
